Results: IntAct's records for PubMed 31515488

B1: LIM/homeobox protein Lhx4 (Homo sapiens), Q969G2 (parent)
chain: MMQSATVPAEGAVKGLPEMLGVPMQQIPQCAGCNQHILDKFILKVLDRHWHSSCLKCADCQMQLADRCFSRAGSVYCKEDFFKRFGTKCTACQQGIPPTQVVRKAQDFVYHLHCFACIICNRQLATGDEFYLMEDGRLVCKEDYETAKQNDDSEAGAKRPRTTITAKQLETLKNAYKNSPKPARHVREQLSSETGLDMRVVQVWFQNRRAKEKRLKKDAGRHRWGQFYKSVKRSRGSSKQEKESSAEDCGVSDSELSFREDQILSELGHTNRIYGNVGDVTGGQLMNGSFSMDGTGQSYQDLRDGSPYGIPQSPSSISSLPSHAPLLNGLDYTVDSNLGIIAHAGQGVSQTLRAMAGGPTSDISTGSSVGYPDFPTSPGSWLDEMDHPPF
partner: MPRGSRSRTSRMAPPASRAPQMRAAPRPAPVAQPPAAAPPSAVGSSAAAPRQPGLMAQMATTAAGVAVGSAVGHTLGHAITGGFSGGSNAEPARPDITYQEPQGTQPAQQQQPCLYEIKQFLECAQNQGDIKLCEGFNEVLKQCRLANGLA
B2: Centrosomal protein of 55 kDa (Homo sapiens), Q53EZ4 (parent)
chain: MSSRSTKDLIKSKWGSKPSNSKSETTLEKLKGEIAHLKTSVDEITSGKGKLTDKERHRLLEKIRVLEAEKEKNAYQLTEKDKEIQRLRDQLKARYSTTTLLEQLEETTREGERREQVLKALSEEKDVLKQQLSAATSRIAELESKTNTLRLSQTVAPNCFNSSINNIHEMEIQLKDALEKNQQWLVYDQQREVYVKGLLAKIFELEKKTETAAHSLPQQTKKPESEGYLQEEKQKCYNDLLASAKKDLEVERQTITQLSFELSEFRRKYEETQKEVHNLNQLLYSQRRADVQHLEDDRHKTEKIQKLREENDIARGKLEEEKKRSEELLSQVQFLYTSLLKQQEEQTRVALLEQQMQACTLDFENEKLDRQHVQHQLHVILKELRKARNQITQLESLKQLHEFAITEPLVTFQGETENREKVAASPKSPTAALNESLVECPKCNIQYPATEHRDLLVHVEYCSK
partner: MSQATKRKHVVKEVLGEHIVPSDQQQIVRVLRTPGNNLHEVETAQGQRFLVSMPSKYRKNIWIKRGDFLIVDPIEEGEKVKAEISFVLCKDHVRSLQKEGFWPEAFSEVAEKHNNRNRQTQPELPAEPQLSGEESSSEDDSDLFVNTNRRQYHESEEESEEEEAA

Variants of: B1
Settings: with chch2_human CHCHD2, Q9Y6H1

Variant | effect of a mutation on the interaction
MMQSATVPAEGAVKGLPEMLGVPMQQIPQCAGCNQHILDKFILKVLDRHWHSSCLKCADCQMQLADRCFSRAGSVYCKEDFFKRFGTKCTACQQGIPPTQVVRKAQDFVYHLHCFACIICNRQLATGDEFYLMEDGRLVCKEDYETAKQNDDSEAGAKRPRTTITAKQLETLKNAYKNSPKPARHVREQLSSETGLDMRVVQVWFQNRRAKEKRLKKDAGRHRWGQFYKSVKRSRGSSKQEKESSAEDCGVSDSELSFREDQILSELGHTNRIYGNVGDVTGGQLMNGSFSMDGTGQSYQDLRDGSPYGIPQSPSSISSLPSHAPLLSGLDYTVDSNLGIIAHAGQGVSQTLRAMAGGPTSDISTGSSVGYPDFPTSPGSWLDEMDHPPF [N328S] | with no effect

Variants of: B2
Settings: with eif1a_human EIF1AD

Variant | effect of a mutation on the interaction
MSSRSTKDLIKSKWGSKPSNSKSETTLEKLKGEIAHLKTSVDEITSGKGKLTDKERQRLLEKIRVLEAEKEKNAYQLTEKDKEIQRLRDQLKARYSTTTLLEQLEETTREGERREQVLKALSEEKDVLKQQLSAATSRIAELESKTNTLRLSQTVAPNCFNSSINNIHEMEIQLKDALEKNQQWLVYDQQREVYVKGLLAKIFELEKKTETAAHSLPQQTKKPESEGYLQEEKQKCYNDLLASAKKDLEVERQTITQLSFELSEFRRKYEETQKEVHNLNQLLYSQRRADVQHLEDDRHKTEKIQKLREENDIARGKLEEEKKRSEELLSQVQFLYTSLLKQQEEQTRVALLEQQMQACTLDFENEKLDRQHVQHQLHVILKELRKARNQITQLESLKQLHEFAITEPLVTFQGETENREKVAASPKSPTAALNESLVECPKCNIQYPATEHRDLLVHVEYCSK [H57Q] | with no effect
MSSRSTKDLIKSKWGSKPSNSKSETTLEKLKGEIAHLKTSVDEITSGKGKLTDKERHRLLEKIRVLEAEKEKNAYQLTEKDKEIQRLRDQLKARYSTTTLLEQLEETTREGERREQVLKALSEEKDVLKQQLSAATSRIAELESKTNTLRLSQTVAPNCFNSSINNIHEMEIQLKDALEKNQQWLVYDQQREVYVKGLLAKIFELEKKTETAAHSLPQQTKKPESEGYLQEEKQKRYNDLLASAKKDLEVERQTITQLSFELSEFRRKYEETQKEVHNLNQLLYSQRRADVQHLEDDRHKTEKIQKLREENDIARGKLEEEKKRSEELLSQVQFLYTSLLKQQEEQTRVALLEQQMQACTLDFENEKLDRQHVQHQLHVILKELRKARNQITQLESLKQLHEFAITEPLVTFQGETENREKVAASPKSPTAALNESLVECPKCNIQYPATEHRDLLVHVEYCSK [C236R] | with no effect
MSSRSTKDLIKSKWGSKPSNSKSETTLEKLKGEIAHLKTSVDEITSGKGKLTDKERHRLLEKIRVLEAEKEKNAYQLTEKDKEIQRLRDQLKARYSTTTLLEQLEETTREGERREQVLKALSEEKDVLKQQLSAATSRIAELESKTNTLRLSQTVAPNCFNSSINNIHEMEIQLKDALEKNQQWLVYDQQREVYVKGLLAKIFELEKKTETAAHSLPQQTKKPESEGYLQEEKQKCYNDLLASAKKDLEVERQTITQLSFELSEFRRKYEETQKEVHNLNQLLYSQRRADVQHLEDDRHKTEKIQKLREENDIARGKLEEEKKRSEELLSQVQFLYTSLLKQQEEQTKVALLEQQMQACTLDFENEKLDRQHVQHQLHVILKELRKARNQITQLESLKQLHEFAITEPLVTFQGETENREKVAASPKSPTAALNESLVECPKCNIQYPATEHRDLLVHVEYCSK [R348K] | with no effect
MSSRSTKDLIKSKWGSKPSNSKSETTLEKLKGEIAHLKTSVDEITSGKGKLTDKERHRLLEKIRVLEAEKEKNAYQLTEKDKEIQRLRDQLKARYSTTTLLEQLEETTREGERREQVLKALSEEKDVLKQQLSAATSRIAELESKTNTLRLSQTVAPNCFNSSINNIHEMEIQLKDALEKNQQWLVYDQQREVYVKGLLAKIFELEKKTETAAHSLPQQTKKPESEGYLQEEKQKCYNDLLASPKKDLEVERQTITQLSFELSEFRRKYEETQKEVHNLNQLLYSQRRADVQHLEDDRHKTEKIQKLREENDIARGKLEEEKKRSEELLSQVQFLYTSLLKQQEEQTRVALLEQQMQACTLDFENEKLDRQHVQHQLHVILKELRKARNQITQLESLKQLHEFAITEPLVTFQGETENREKVAASPKSPTAALNESLVECPKCNIQYPATEHRDLLVHVEYCSK [A244P] | with no effect
